System: cultured PBMCs of the allergic donors
Assay: ELISPOT of IL-5 or IFNg production by cultured PBMCs of TG allergic donors in response to peptide
Format: cell-based, human
Conditions: for NTGA's containing at least one T cell epitope, Th+ (Col 2): NTGA number given = criterion met, TG allergic donors n=20; for No of PG+ & th+ peptides per NTGA / No of PP & Th+ peptides per NTGA: Table 6; for No of PG+ & th+ peptides per NTGA: PG+ peptides recognized by T cells of grass allergic donors (n=20); for No of PP & Th+ peptides per NTGA: PP peptides recognized by T cells of grass allergic donors (n=20); for # Th+: Table 7, peptides per NTGA recognized by T cells of grass allergic donors (n=20); for PG+ peptides recognized by grass allergic donors: n=20 grass allergic donors, PG+ peptides of the NTGA; for T cell reactivity of sequences contained in the protein: among top pan-pollen NTGA's ranked by number of PP peptides
Text: Table 1 indicates for each of the 397 PG+ peptides in which non-grass pollen species a matching peptide with either less than 3, less than 2 or zero mismatches are found. The number of TG grass allergic donors (n=20) with an in vitro T cell response to the TG peptide sequence is also shown.
A set of 93 proteins from Timothy grass (TG) pollen and the assembly of 822 peptides (15 mers) predicted to promiscuously bind HLA class II molecules shown in Table 9 and the immune reactivity in allergic donors have been reported in PCT application WO 2013/119863. […] Immune reactivity was determined by the production of IL-5 or IFNg from cultured PBMCs of the allergic donors in response to stimulation with a peptide and IL-5 and IFNg were measured by ELISPOT as described in Oseroff C et al, 2010.
In short, T cell immune reactivity was determined using PBMCs isolated from study participants and stored in liquid nitrogen until further use. For experimental testing, PBMCs were thawed and expanded in vitro with TG pollen extract (50 μg/mL) or the peptide pool ([…]). The TG extract and peptide pools had each been previously titrated to determine optimal stimulation concentrations.
Cytokine production by cultured PBMCs in response to antigen stimulation was measured by ELISPOT. Cells (1×10^5 cells/well) were plated and incubated with peptide (10 μg/mL), the peptide pool (5 μg/mL), or the TG extract (50 μg/mL). Phytohaemagglutinin (10 μg/mL) and medium alone were used as positive and negative controls, respectively. Samples were considered to produce a cytokine if 100 spot-forming cells (SFCs)/10^6 PBMCs were detected, with P .05 and a stimulation index of 2 or more. Criteria for individual peptides were the same except that a minimum of 20 SFCs were required for a sample to be counted as positive.
Table 3 lists the 397 PG+ peptides and indicates for each non-grass pollen species whether a matching peptide with either less than 3, less than 2 or zero mismatches could be detected. The immune reactivity of the TG peptide was assessed as the number of TG grass allergic donors (n=20) having in vitro T cell response against the TG peptide.

B1: NTGA 27: Phl p wild type sequence, Table 2 (protein)
chain: MSAYCGKYKDELIKNAAYIGTPGKGILAADESTGTIGKRFASINVENVEDNRRALRELLFTTPGALQHISGVILFEETLYQSSKAGKPFVDILKENNVLPGIKVDKGTVELAGTDKETTTQGHDDLGKRCAKYYEAGARFAKWRAVLKIGPNEPSQLSIDQNAQGLARYAIICQENGLVPIVEPEILVDGPHDIERCAYVTEVVLAACYKALNDQHVLLEGSLLKPNMVTPGSDAKKVAPEVIAEYTVRTLQRTVPPAVPAIVFLSGGQSEEEATVNLNAMNKLQTKKPWFLSFSFGRALQQSTLKAWSGKEENVEKAQKAFLVRCKANSEATLGTYKGDATLGEGASESLHVKDYKY
modifications: Phleum Pratense
immune reactivity (SFC counts in ELISPOT) of highly conserved PG+ peptides derived from the NTGA: high immune reactivity | NTGA's containing at least one T cell epitope, Th+ (Col 2): 27 | No of PG+ & th+ peptides per NTGA: 5 | No of PP & Th+ peptides per NTGA: 4 | # Th+: 0

B2: NTGA 89: Phl p wild type sequence, Table 2 (protein)
chain: MSAADKVKPAASPAAEDPAAIAGNISYHAHYSPHFSPLAFGPEPAYFATAESVRDHLLQRWNDTYLHFHKTDPKQTYYLSMEYLQGRALTNAVGNLGITGAYAEAVKKFGYELEALAGQERDMALGNGGLGRLAACFLDSMATLNLPAWGYGLRYRYGLFKQRIAKEGQEEIAEDWLEKFSPWEIVRHDVVYPVRFFGHVEILPDGRRKSAGGEVLNALAYDVPIPGYKTKNAISLRLWDAKASAEDFNLFQFNDGQYESAAQLHSRAQQICAVLYPGDATEEGKLLRLKQQFFLCSASLQDIIFRFKERKSDRVSGKWSEFPSKVAVQMNDTHPTLAIPELMRLLMDEEGLGWDEAWDVTNKTVAYTNHTVLPEALEKWSQSVMRKLLPRQMEIIEEIDKRFREMVISTRKDMEGKLDSMSVLDNSPQKPVVRMANLCVVSAHTVNGVAELHSNILKEELFADYVSIWPKKFQNKTNGITPRRWLRFCNPELSEIVTKWLKTDQWTSNLDLLTGLRKFADDEKLHAEWAAAKLASKKRLAKHVLDATGVTIDPTSLFDIQIKRIHEYKRQLMNILGAVYRYKKLKEMSAEEKQKVTPRTVMVGGKAFATYTNAKRIVKLVNDVGAVVNNDPDVNKYLKVVFIPNYNVSVAEVLIPGSELSQHISTAGMEASGTSNMKFSLNGCVIIGTLDGANVEIREEVGEDNFFLFGAKADQVAGLRKDRENGLFKPDPRFEEAKQYIRSGTFGTYDYTPLLDSLEGNSGFGRGDYFLVGYDFPSYIDAQARVDEAYKDKKRWIKMSILNTAGSGKFSSDRTIDQYAKEIWGITANPVP
modifications: Phleum Pratense
NTGA's containing at least one T cell epitope, Th+ (Col 2): 89 | No of PG+ & th+ peptides per NTGA: 13 | No of PP & Th+ peptides per NTGA: 0 | # Th+: 4 | PG+ peptides recognized by grass allergic donors: two

B3: NTGA 1: Phl p (Timothy grass pollen) wild type sequence, Table 2 (protein)
chain: MAATIQSVKARQIFDSRGNPTVEVDVCCSDGTFARAAVPSGASTGVYEALELRDGGSDYLGKGVLKAVDNVNSIIGPALIGKDPTEQTELDNFMVHQLDGTKNEWGWCKQKLGANAILAVSLAVCKAGALVKKIPLYQHIANLAGNKQLVLPVPAFNVINGGSHAGNKLAMQEFMILPTGASSFKEAMKMGVEVYHNLKSVIKKKYGQDATNVGDEGGFAPNIQENKEGLELLKTAIEKAGYTGKVVIGMDVAASEFYGEKDQTYDLNFKEENNDGSQKISGDSLKNVYKSFVSEYPIVSIEDPFDQDDWVHYAKMTEEIGEQVQIVGDDLLVTNPTRVAKAIAEKSCNALLLKVNQIGSVTESIEAVKMSKRAGWGVMTSHRSGETEDTFIADLAVGLSTGQIKTGAPCRSERLAKYNQLLRIEEELGAAAVYAGLKFRAPVEPY
modifications: Phleum Pratense
NTGA's containing at least one T cell epitope, Th+ (Col 2): 1 | No of PG+ & th+ peptides per NTGA: 5 | No of PP & Th+ peptides per NTGA: 4 | # Th+: 0

B4: NTGA 7: Phl p wild type sequence, Table 2 (protein)
chain: MAFEKIKVANPIVEMGDEMTRVFWQSIKEKLIFPFLDLDIKYYDLGVLHRDATDDKVTVEAAEATLKYNVAIKCATITPDEDRVKEFNLKQMWRSPNGTIRNIINGTVFREPIICKNVPKLVPGWTKPICIGRHAFGDQYRATDAVLKGPGKLRLVFEGKDETVDLEVFNFTGAGGVALAMYNTDESIQGFAEASMAIAYEKKWPLYLSTKNTILKKYDGRFKDIFQAVYEADWKSKYEAAGIWYEHRLIDDMVAYALKSEGGYVWACKNYDGDVQSDFLAQGFGSLGLMTSVLMCPDGKTIEAEAAHGTVTRHFRVHQKGGETSTNSIASIFAWTRGLAHRAKLDDNARLLDFTQKLEDACVGTVESGKMTKDLALLVHGSSKVTRGDYLNTEEFIDAVAAELQSRLAAN
modifications: Phleum Pratense
immune reactivity (SFC counts in ELISPOT) of highly conserved PG+ peptides derived from the NTGA: high immune reactivity | NTGA's containing at least one T cell epitope, Th+ (Col 2): 7 | No of PG+ & th+ peptides per NTGA: 9 | No of PP & Th+ peptides per NTGA: 6 | # Th+: 4 | T cell reactivity of sequences contained in the protein: highly T cell reactive sequences | PG+ peptides recognized by grass allergic donors: two

B5: NTGA 2: Phl p wild type sequence, Table 2 (protein)
chain: MASPALISDTDQWKALQAHVGAIHKTHLRDLMADADRCKALTAEFEGVFLDYSRQQATTETVDKLFKLAEAAKLKEKIAKMFNGDKINSTENRSVLHVALRAPRDAVINSDGVNVVPEVWAVIDKIKQFSETFRSGSWVGATGKPLTNVVSVGIGGSFLGPLFVHTALQTDPEAAESAKGRQLRFLANVDPVDVARSIKDLDPETTLVVVVSKTFTTAETMLNARTIKEWIVSSLGPQAVSKHMIAVSTNLKLVKEFGIDPNNAFAFWDWVGGRYSVCSAVGVLPLSLQYGFPIVQRFLEGASSIDNHFRTASFEKNIPVLLGLLSVWNVSFLGYPARAILPYSQALEKLAPHIQQLSMESNGKGVSIDGVPLPYEAGEIDFGEPGTNGQHSFYQLIHQGRVIPCDFIGVIKSQQPVYLKGETSNHDELMSNFFAQPDALASRKTPAPLRSENVSENLIPHKTFKGNRPSLSFLLSSLSAYEIGQLLAIYEHRIAVQGFIWGINSFDQWGVELGKSLASQVRKQLHASRMEGKPVEGFNPSSASLLARYLAVEPSTPYDTTVLPKV
modifications: Phleum Pratense
immune reactivity (SFC counts in ELISPOT) of highly conserved PG+ peptides derived from the NTGA: high immune reactivity | NTGA's containing at least one T cell epitope, Th+ (Col 2): 2 | No of PG+ & th+ peptides per NTGA: 15 | No of PP & Th+ peptides per NTGA: 12 | # Th+: 5 | T cell reactivity of sequences contained in the protein: highly T cell reactive sequences | PG+ peptides recognized by grass allergic donors: two

B6: NTGA 24: Phl p wild type sequence, Table 2 (protein)
chain: MATKRSVGTLGEADLKGKKVFLRADLNVPLDDAQKITDDTRIRASIPTIKFLLEKGAKVILASHLGRPKGVTPKFSLKPLVPRLSELLGVEVVMANDCIGEEVEKLAAALPEGGVLLLENVRFYKEEEKNDPEFAKKLASVADLYVNDAFGTAHRAHASTEGVTKFLRPSVAGFLMQKELDYLVGAVANPKKPFAAIVGGSKVSSKIGVIESLLAKVDILILGGGMIFTFYKAQGKAVGKSLVEEDKLELATSLIETAKAKGVSLLLPTDVVVADKFAPDAESKTVSADAIPDGWMGLDVGPDSIKTFSEALDTTKTVIWNGPMGVFEFEKFAAGTDAIAKQLADLTGKGVTTIIGGGDSVAAVEKAGLADKMSHISTGGGASLELLEGKPLPGVLALDEA
modifications: Phleum Pratense
immune reactivity (SFC counts in ELISPOT) of highly conserved PG+ peptides derived from the NTGA: high immune reactivity | NTGA's containing at least one T cell epitope, Th+ (Col 2): 24 | No of PG+ & th+ peptides per NTGA: 11 | No of PP & Th+ peptides per NTGA: 8 | # Th+: 2 | PG+ peptides recognized by grass allergic donors: two

B7: NTGA 53: Phl p wild type sequence, Table 2 (protein)
chain: MDRNPVAKNAGKFMTLAGVLDYAKASNISGILIGIEHAAYLATRGLDVVDAVSNALIKSGYDKETKQQVFIQSEDPPVLSAFKKFPKFNRVFEIEFDIRDVSKPSVVEIKEFANAVKLRRSSAAQVDGFYLTGFNAVVERLRDADIQVHVGVLKNEFMSLAFDYWADPMVEIATDTWSVLADGLVTEFPSTAAAYFRSPCSDIKRNMSYTIKPGEPGALVDMAAYGALPPAPPPAPVLEPADVHRQPLPLCPTEPMFRTFRCRLPPKETGKNAEYTANLAADG
modifications: Phleum Pratense
NTGA's containing at least one T cell epitope, Th+ (Col 2): 53 | No of PG+ & th+ peptides per NTGA: 3 | No of PP & Th+ peptides per NTGA: 1 | # Th+: 3 | T cell reactivity of sequences contained in the protein: highly T cell reactive sequences

Reference: US20160287696A1, “PAN POLLEN IMMUNOGENS AND METHODS AND USES FOR IMMUNE RESPONSE MODULATION” (LA JOLLA INSTITUTE FOR ALLERGY AND IMMUNOLOGY, priority 2013, published 2016)
